From patent US20060083715A1 (published 2006) come the findings set out here.

This assay concerns the target T1, Interferon type I receptors on HeLa cells (UniProt P17181 28-557; P48551 27-515, limits assumed).
T1 sequence (looked up) 1: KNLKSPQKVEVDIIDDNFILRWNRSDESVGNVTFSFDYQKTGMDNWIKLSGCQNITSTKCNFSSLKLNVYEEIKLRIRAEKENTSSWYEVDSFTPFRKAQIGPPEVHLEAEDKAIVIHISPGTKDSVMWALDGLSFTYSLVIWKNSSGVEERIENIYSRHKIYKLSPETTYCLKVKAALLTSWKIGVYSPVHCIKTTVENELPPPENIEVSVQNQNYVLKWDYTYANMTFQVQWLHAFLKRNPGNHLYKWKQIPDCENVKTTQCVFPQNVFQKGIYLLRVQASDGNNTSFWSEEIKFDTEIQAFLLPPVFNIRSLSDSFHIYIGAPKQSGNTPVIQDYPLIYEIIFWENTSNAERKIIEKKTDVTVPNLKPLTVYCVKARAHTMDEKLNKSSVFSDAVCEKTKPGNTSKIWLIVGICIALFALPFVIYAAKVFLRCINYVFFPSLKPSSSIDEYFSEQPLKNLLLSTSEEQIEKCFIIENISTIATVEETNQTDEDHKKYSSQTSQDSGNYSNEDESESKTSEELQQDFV
T1 sequence (looked up) 2: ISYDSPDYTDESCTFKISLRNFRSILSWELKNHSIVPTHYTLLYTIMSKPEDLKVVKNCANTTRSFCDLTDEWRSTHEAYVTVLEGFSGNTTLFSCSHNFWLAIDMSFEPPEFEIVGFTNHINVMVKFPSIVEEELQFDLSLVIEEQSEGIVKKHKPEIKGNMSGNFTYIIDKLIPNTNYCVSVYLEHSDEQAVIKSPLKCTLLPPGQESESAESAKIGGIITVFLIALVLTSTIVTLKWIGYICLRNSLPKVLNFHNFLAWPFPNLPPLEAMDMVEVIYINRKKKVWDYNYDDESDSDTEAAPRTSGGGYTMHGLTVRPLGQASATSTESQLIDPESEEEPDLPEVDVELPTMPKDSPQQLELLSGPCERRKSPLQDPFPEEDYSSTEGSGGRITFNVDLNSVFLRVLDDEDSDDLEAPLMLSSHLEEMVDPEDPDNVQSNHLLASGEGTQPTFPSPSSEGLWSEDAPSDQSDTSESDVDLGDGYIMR
Put plainly: cell-based or functional assay.

B1: [F111N+R113T] human IFNB variant (ligand)
chain: MSYNLLGFLQRSSNFQCQKLLWQLNGRLEYCLKDRMNFDIPEEIKQLQQFQKEDAALTIYEMLQNIFAIFRQDSSSTGWNETIVENLLANVYHQINHLKTVLEEKLEKEDNTTGKLMSSLHLKRYYGRILHYLKAKEYSHCAWTIVRVEILRNFYFINRLTGYLRN
modifications: introduced in vivo N-glycosylation site at position 111
For B1, the “specific activity relative to wild-type human IFNB (primary assay)” value is ~2 fold of wild-type human IFNB.
